Where a chain is given by its changes, count along the chain named. Names may count otherwise.
Target: the molecule itself
Experiment: SEC

B1: Spa47 E267A (enzyme)
chain: MSYTKLLTQLSFPNRISGPILETSLSDVSIGEICNIQAGIESNEIVARAQVVGFHDEKTILSLIGNSRGLSRQTLIKPTAQFLHTQVGRGLLGAVVNPLGEVTDKFAVTDNSEILYRPVDNAPPLYSERAAIEKPFLTGIKVIDSLLTCGEGQRMGIFASAGCGKTFLMNMLIEHSGADIYVIGLIGERGREVTETVDYLKNSEKKSRCVLVYATSDYSSVDRCNAAYIATAIAEFFRTEGHKVALFIDSLTRYARALRDVALAAGASPARRGYPVSVFDSLPRLLERPGKLKAGGSITAFYTVLLEDDDFADPLAEEVRSILDGHIYLSRNLAQKGQFPAIDSLKSISRVFTQVVDEKHRIMAAAFRELLSEIEELRTIIDFGEYKPGENASQDKIYNKISVVESFLKQDYRLGFTYEQTMELIGETIR
binding result: binds

B2: Spa47 E267R (enzyme)
chain: B1 chain with A267R
binding result: binds
